Measurements reported in doi:10.1101/2020.12.18.423415.

Biological target: SARS-CoV-2 Spike protein (S protein) (SARS-CoV-2) (UniProt P0DTC2)
Test: ELISA

recombinant fragment of human surfactant protein D (rfhSP-D), sequence (P35247 201-375): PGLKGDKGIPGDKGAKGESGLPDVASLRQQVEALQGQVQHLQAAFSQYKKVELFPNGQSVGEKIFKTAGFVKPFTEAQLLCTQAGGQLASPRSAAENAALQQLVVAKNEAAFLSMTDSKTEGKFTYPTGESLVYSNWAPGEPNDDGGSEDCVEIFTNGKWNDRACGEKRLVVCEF

recombinant fragment of human surfactant protein D (rfhSP-D) (from UniProt P35247 201-375) (domain or fragment)
percent decrease of S protein-hACE-2 binding (rfhSP-D increased 5-fold): 50%
